Data on 72 sequences can be found in the supplement of paper PMC10567573.

± gives the standard deviation.

A short description of this data set: protein stability index of a GFP-peptide fusion (GPS, HEK-293T) (PSI 1-6); higher = more stable.
[1] abbreviates: treatment: DMSO, c terminus: a fixed tail appended.
[2] abbreviates: treatment: MLN4924 1 uM, 8 h, c terminus: a fixed tail appended.
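Also: 24-mer peptide tiles fused after GFP, lentivirally expressed, FACS-sorted into six equal bins by GFP/DsRed ratio, decoded by Illumina sequencing, PSI is the read-weighted mean bin number.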

As to LPEWISCLIQKAQWTVGKLNCPFC [RNF180], the protein stability index under setting [1] was determined as 2.22 ± 0.19 and the protein stability index under setting [2] worked out at 2.31 ± 0.087.
Consider ESTLYPNPYHQPYISRKYFATRPG [TPRG1], for which the protein stability index turned out to be 2.76 ± 0.43 under setting [1] and 3.03 ± 0.088 under setting [2].
Regarding IQAEERLDMEKRRCRQSLEDSESL [LRRC45], the protein stability index by setting is: under setting [1], 5.08 ± 0.27; under setting [2], 5.16 ± 0.1.
For DVRLLPRRLPLAFRDATSAPLRKL [DYRK1B] the same measures were 3.17 ± 0.27 and 3.02 ± 0.15.
With MSLLPDKKTVHYYAELGQCSVFPA [PLK2], the protein stability index was 2.41 ± 0.13 under setting [1] and 2.44 ± 0.35 under setting [2].
On the same counts, the results for GIDLAVYETLKNAWLQHYAVNSAD [SLC25A25] are 2.84 ± 0.44 and 2.4 ± 0.33.
For EVTVQRNCCLTLCNFSIPEELEFQ [ZER1] the same measures were 2.68 ± 0.26 and 2.59 ± 0.42.
On the same counts, the results for LDRHQLPLDDALLSFAHANCTLII [DPCD] are 2.69 ± 0.56 and 2.63 ± 0.48.
GWGTVFSLESEEEEYPGITAEDSN [BCL2L13] gave a protein stability index under setting [1] of 5.05 ± 0.23 and a protein stability index under setting [2] of 5.03 ± 0.38.
For REFKVTDARDGQSRTVRQFQFTDW [PTPRD] the same measures were 3.16 ± 0.34 and 3.11 ± 0.58.
Take EEQESVDTGEEEEGGDESDLSSES [EHMT1]: the protein stability index was found to be 5.57 ± 0.19 under setting [1] and 5.64 ± 0.16 under setting [2].
For AFRSDDTKGHPRAVSQPFRLSSSL [CDC14A] the same measures were 3.43 ± 0.2 and 3.47 ± 0.26.
For TLTKQDTMLKAMFSGRMEVLTDSE [KCTD10] the same measures were 4.09 ± 0.26 and 4.32 ± 0.2.
On the same counts, the results for APSIDLFSTDAFSSPPQGASPVPE [SNAP91] are 4.94 ± 0.34 and 5.04 ± 0.21.
Consider DEDLDLIPPKSVNPTCMCCQATSS [FAM219A], for which the protein stability index runs as follows: under setting [1], 4.63 ± 0.33; under setting [2], 4.53 ± 0.63.
On the same counts, the results for MVQLDSIEDLEVTCTWKLPTLAKF [PRAME] are 2.6 ± 0.45 and 2.75 ± 0.64.
For the sequence KPPYSYATLICMAMQASKATKITL [FOXJ1], the protein stability index worked out at 2.78 ± 0.57 under setting [1] and 2.8 ± 0.53 under setting [2].
For LYNMDLSDDHIRVIVQLHKLRHLD [ZER1], the protein stability index is, setting by setting: under setting [1], 2.25 ± 0.38; under setting [2], 2.56 ± 0.37.
On to ASKEEKEDWLSHALSRKKSQGLAR [FBF1], for which the protein stability index was found to be 4.57 ± 0.18 under setting [1] and 4.57 ± 0.32 under setting [2].
For PATGGAIPSWQIRTVKLIRYVSNW [PKD2L1] the same measures were 2.09 ± 0.24 and 2.24 ± 0.39.
On the same counts, the results for VCQEVLERSRDVVDEVSVSLRLWD [RHOBTB1] are 3.1 ± 0.48 and 3.36 ± 0.46.
For SDEYKIRRERNNIAVRKSRDKAKM [CEBPB] the same measures were 4.75 ± 0.27 and 5 ± 0.17.
In the case of DSLLLHSSGQCRRRKRTYWNDSCG [WEE1], the protein stability index turned out to be 2.75 ± 0.29 under setting [1] and 2.82 ± 0.47 under setting [2].
On the same counts, the results for IHSHHDGVLRPTVRPGTPPDFILK [CTDNEP1] are 3.66 ± 0.18 and 3.72 ± 0.21.
On the same counts, the results for TVAGKHQDLKYISPEIMASVLNGK [CDC25A] are 3.17 ± 0.2 and 3.3 ± 0.32.
On the same counts, the results for RGEAEAFAIGARARAEAEQMAKKA [FLOT1] are 5.33 ± 0.27 and 5.17 ± 0.26.
Take GSVGAAICGLQQDEEVSSLTCDAL [CCND2]: the protein stability index was determined as 4.54 ± 0.35 under setting [1] and 4.63 ± 0.25 under setting [2].
For QPPEFRNESSLASTLKTLLFFTAL [VMA21] the same measures were 2.42 ± 0.32 and 2.39 ± 0.11.
On the same counts, the results for THQTQPGIRRARDKALSGGKRKET [NET1] are 4.79 ± 0.23 and 5 ± 0.17.
On the same counts, the results for RTGSLFKIWLVVPSLLELAWEKLL [KLHDC10] are 2.84 ± 0.27 and 2.78 ± 0.31.
With AVNLSVSTLPSLREEEEQVRAHAP [KCNG1], the protein stability index is, setting by setting: under setting [1], 3.83 ± 0.54; under setting [2], 4.21 ± 0.44.
On the same counts, the results for TLARMSRRTRGPVERAAAAAAAAA [C6orf223] are 3.02 ± 0.56 and 3.43 ± 0.91.
With ESDPSDPNKDMVVQLIDDFKISGM [SRPK2], the protein stability index reads like this: under setting [1], 4.82 ± 0.3; under setting [2], 4.8 ± 0.26.
For DEWACELRLFGRVLERAACLRRCK [P3H4] the same measures were 2.74 ± 0.49 and 2.8 ± 0.6.
For DVVFEIQGTTVPAHRAILVARCEV [RHOBTB3] the same measures were 2.69 ± 0.85 and 2.51 ± 0.44.
For LPSSGEGLAFFTFPNIASATKFKQ [HMOX1] the same measures were 2.75 ± 0.43 and 2.87 ± 0.18.
As to RTPPKSPGDPSKDRAAKRLSLESE [TPPP], the protein stability index by setting is: under setting [1], 5.3 ± 0.14; under setting [2], 4.99 ± 0.25.
On the same counts, the results for RCMQCDAKFDFLTRKHHCRRCGKC [ZFYVE21] are 3.94 ± 0.34 and 4.3 ± 0.3.
On the same counts, the results for DSVAEVAAKARDTGILIFAIGVGQ [MATN2] are 2.73 ± 0.9 and 2.64 ± 0.97.
For NPMDMGTIKKRLENNYYWSASECM [BRD3] the same measures were 2.34 ± 0.31 and 2.65 ± 0.082.
Consider NAKAHCGATALHFAAEAGHIDIVK [FEM1B], for which the protein stability index is 2.59 ± 0.36 under setting [1] and 2.62 ± 0.17 under setting [2].
For SQSFSLYVKYQVAIHQDPPDECGK [ATE1] the same measures were 2.75 ± 0.37 and 2.5 ± 0.35.
For AQTFLFQGQPVVNRPLSLKDQQTF [TRADD] the same measures were 3.25 ± 0.26 and 3.39 ± 0.23.
On the same counts, the results for PDKEEQLPFGPFNGTAWTYHSQDE [PKD2L1] are 4.67 ± 0.1 and 4.76 ± 0.38.
On to LVENDQQLQKILSIPQSSLEPLKA [ACSBG2], for which the protein stability index came out at 3.66 ± 0.34 under setting [1] and 3.99 ± 0.41 under setting [2].
For EPGTPSSSPDDKLLTSPRAINNLV [KLHL14] the same measures were 4.87 ± 0.16 and 4.91 ± 0.34.
For TWASPAEVVDLTLDEDSRRKYLL [C18orf25], the protein stability index runs as follows: (treatment: DMSO, c terminus: native) 4.49 ± 0.44; (treatment: MLN4924 1 uM, 8 h, c terminus: native) 4.68 ± 0.53.
AFYRLADLFGWSQLIYNHITTRVN [ADD1] gave a protein stability index under setting [1] of 3.25 ± 0.54 and a protein stability index under setting [2] of 2.88 ± 0.35.
On the same counts, the results for RNRAITARRQHLKSVMLQIAATEL [TNNI2] are 2.4 ± 0.25 and 2.72 ± 0.33.
On the same counts, the results for YEKKFDTFIPLEPLPQIPNLPFWV [SPATS1] are 2.24 ± 0.31 and 1.95 ± 0.18.
On to GLAIHCMQVHKETIDAVPNAIPGR [ZNF207], for which the protein stability index stood at 2.94 ± 0.18 under setting [1] and 3.04 ± 0.16 under setting [2].
On the same counts, the results for YNQQQALIDQRYFQVLCSINSIIH [CEP70] are 2.32 ± 0.34 and 2.24 ± 0.23.
On the same counts, the results for EIELQAQHNLRDSLENTLTESEAH [KRT34] are 5.3 ± 0.27 and 5.18 ± 0.16.
On the same counts, the results for RALLRRFPRMLLVDRLPGLQGALD [ZSWIM9] are 2.49 ± 0.25 and 2.52 ± 0.24.
Consider SPHSPDSSQSSLAQEEEEEDQGRT [DDIT3], for which the protein stability index amounted to 5.57 ± 0.21 under setting [1] and 5.54 ± 0.17 under setting [2].
For ASFHHKLHHKRLAKECMLQEENKS [CBY2] the same measures were 4.1 ± 0.26 and 4.27 ± 0.2.
On the same counts, the results for LLKDKVRERIQILKTSEVTQHLPR [PTPN9] are 2.7 ± 0.32 and 2.99 ± 0.075.
For YLYTYDSQITDSEHNSSLVSQQTG [ZNF8] the same measures were 3.73 ± 0.2 and 3.71 ± 0.11.
For the sequence HHLPLPDNWKSQVEPETRAVIRWM [CPN1], the protein stability index is 2.62 ± 0.34 under setting [1] and 2.77 ± 0.44 under setting [2].
For LHSHRHLYPEGIGARQQQVTTYLH [POMT2] the same measures were 2.76 ± 0.21 and 2.82 ± 0.2.
For MERARDRLHLRRTTEQHVPEVEVQ [SNURF], the protein stability index is, setting by setting: under setting [1], 4.77 ± 0.2; under setting [2], 4.72 ± 0.06.
The sequence PVPSAPVIDLAESLVADNCVTLVW [FSD1] gave a protein stability index under setting [1] of 2.56 ± 0.37 and a protein stability index under setting [2] of 2.1 ± 0.24.
On the same counts, the results for ESVADLLALEEPVDYKQSVLNVAG [SLC6A17] are 4.43 ± 0.1 and 4.58 ± 0.24.
For SGAGRRKNATRETTSTLKAWLNEH [IRX6] the same measures were 3.55 ± 0.28 and 3.58 ± 0.23.
On the same counts, the results for NIHQLQNRLSELEVANKDLTERKY [SASS6] are 3.42 ± 0.15 and 3.62 ± 0.34.
For RACSHLIRLMQRCWQGDPRVRPTF [RIPK4], the protein stability index under setting [1] stood at 2.87 ± 0.45 and the protein stability index under setting [2] turned out to be 2.83 ± 0.2.
On the same counts, the results for IDYYESKIRKIHTQRQYKEDESQS [CEP70] are 4.08 ± 0.084 and 4.2 ± 0.1.
On the same counts, the results for LVETNRREVEQWFATQTEELNKQV [KRT33B] are 4.41 ± 0.21 and 4.49 ± 0.31.
Consider DDHGDECSYTDLLPQDEGGGGYSS [KCNA4], for which the protein stability index reads like this: under setting [1], 5.52 ± 0.22; under setting [2], 5.62 ± 0.082.
Take PPYQGGPPRPPMGMRPPVMSQGGR [ZNF207]: the protein stability index under setting [1] is 4.68 ± 0.34 and the protein stability index under setting [2] amounted to 4.91 ± 0.16.
For VAETSGETIQGFWLLTKIDHWNNE [TPRG1] the same measures were 2.11 ± 0.36 and 2.31 ± 0.26.
For PGLPGSTGNPKSEEPEVPDQEGLQ [SPNS1] the same measures were 5.39 ± 0.75 and 4.88 ± 0.22.
